The record followed here is patent US20140050743A1, “BINDING PROTEINS TO INHIBITORS OF COAGULATION FACTORS” (BAYER INTELLECTUAL PROPERTY GMBH, priority 2011, published 2014).

The nature of assay [1]: ELISA-based activity assay of antibody variants with a competition step (300 nM rivaroxaban). It is filed as binding. Also noted: key: ++: Variants with an average ratio above wt plus 2×SD (standard deviation of the ratio) were considered as improved; −: variants with a ratio below wt minus 2×SD were considered as reduced in their binding affinity; +/−: All variants with a performance in between both thresholds; −−: Variants with average fluorescence counts below the negative control (non-expressing cells) plus 3×SD were considered as non-binding. The conditions noted are these: Table 11: single and double amino acid substitutions within M18-G08, variant to wt ratio, 1-3 independent experiments. On the procedure:
To determine the activity of the mutated antibody variants on compound from Example 1K an equilibrium or dissociation limited ELISA assay format was used. Briefly, MTP plates (Nunc Maxisorp black, 460518) were coated with 4 μg/ml streptavidin (Calbiochem, 189730) diluted in coating buffer (Candor Bioscience GmbH, 121500) and incubated over night at 4° C. After washing with PBST, plates were blocked with 100% Smart Block (Candor Bioscience GmbH, 113500) in PBST for 1 h at room temperature and the washing step was repeated. […] After washing 10 μM Amplex Red (Invitrogen, A12222) were added and incubated for 10 to 30 min at room temperature followed by measurement of the fluorescence signal.
Provided in table 11 are several examples of single and/or double amino acid substitutions introduced into the heavy and/or the light chain of M18-G08 (wt). Performance of the variants was analyzed in quadruples in the ELISA with a competition step and the FXa deinhibition assay (FXa DIA). In the ELISA, averages were calculated and overall performance of variants was evaluated by comparing the variant to wt ratio from 1-3 independent experiments. […] Variants with average fluorescence counts below the negative control (non-expressing cells) plus 3×SD were considered as non-binding and marked with “−−”. […] Variants not analyzed are marked with “nd” (not determined). […]
(In general: ELISA stands for enzyme-linked immunosorbent assay.)

In assay [2] the test system is rivaroxaban (FXa activity). In words: FXa de-inhibition assay (FXa DIA) of Fab variants. It is filed as biochemical. Also noted: key: ++: Variants with an average ratio above wt plus 2×SD were considered as improved; −−: variants with a ratio below wt minus 2×SD were considered as either reduced in their binding affinity or non-binding; +/−: All variants with a performance in between both thresholds. As to conditions: Table 11: single and double amino acid substitutions within M18-G08; FXa deinhibition assay; variant/wt ratio, 2-3 independent experiments. On the procedure:
Then, 7 μl of 28 nM FXa (Haematologic Technologies Inc., HCXA-0060) diluted in assay buffer (20 mM Tris, Merck 1.08382.2500; 100 mM NaCl, Merck 1.06404.5000; 2.5 mM CaCl2*2H2O, Merck 1.02382.1000; 0.1% bovine serum albumin, Sigma A4503; 0.1% PEG 8000, Sigma P2139) were added and enzyme activity was recorded over time by measuring the fluorescence signal at 440 nm using a micro plate reader e.g. Tecan Infinite F500. The fluorescence signal was integrated over time and ratios of variant to wild-type were compared.
Provided in Table 9 are several examples of single and/or double amino acid substitutions introduced into the heavy and/or the light chain of M14-G07 (wt). Performance of the variants was analyzed in quadruples in the ELISA without a competition step and the FXa deinhibition assay (FXa DIA). In the ELISA, averages were calculated and normalized to the respective average expression level. Overall performance of variants was evaluated by comparing the variant to wt ratio from 2-3 independent experiments. […] Variants with average fluorescence counts below the negative control (non-expressing cells) plus 3×SD were considered as non-binding and marked with “−−” with none of the variants fulfilling this criteria. In the FXa deinhibition assay averages were calculated and overall performance of variants was evaluated by comparing the variant to wt ratio from 2-3 independent experiments. […]

B1: HC_A32Y (antibody, V domains shown)
VH: EVQLLESGGGLVQPGGSLRLSCAASGFTFSNYWMSWVRQAPGKGLEWVSYISSSGSTIYYADSVKGRFTISRDNSKNTLYLQMNSLRAEDTAVYYCAREGLWAFDYWGQGTLVTVTS
VL: QSVLTQPPSASGTPGQRVTISCTGSSSNIGAGYVVHWYQQLPGTAPKLLIYDNNKRPSGVPDRFSGSKSGTSASLAISGLRSEDEADYYCAAWDDRLNGPVFGGGTKLTVLGQ
Consider B1, for which the ELISA result in assay [1] was “++”. Moreover, in assay [2], the FXa-DIA entry is reported as “++”.
